Assay results from PMC3828348.

Tested on: GST-KSRP
Assay: competition
Conditions: REMSA: 50 mM Tris-HCl pH 7.0, 150 mM NaCl, 0.25 mg/ml tRNA, 0.25 mg/ml BSA, 5% glycerol, 10 min 37°C; competition: 10 mM HEPES pH 7.4, 100 mM KCl, 5 mM MgCl2 …; scale: % HuD binding remaining at equimolar KSRP

Substance: GAP-43 ARE RNA (pGAP/B transcript)
- binding signal: 50
